For assay [1], the target named is T1, human CD19 antigen (human, UniProt P15391 20-556).
T1 construct: whole, on cells; also called hCD19; recombinant human CD19
T1 sequence (looked up): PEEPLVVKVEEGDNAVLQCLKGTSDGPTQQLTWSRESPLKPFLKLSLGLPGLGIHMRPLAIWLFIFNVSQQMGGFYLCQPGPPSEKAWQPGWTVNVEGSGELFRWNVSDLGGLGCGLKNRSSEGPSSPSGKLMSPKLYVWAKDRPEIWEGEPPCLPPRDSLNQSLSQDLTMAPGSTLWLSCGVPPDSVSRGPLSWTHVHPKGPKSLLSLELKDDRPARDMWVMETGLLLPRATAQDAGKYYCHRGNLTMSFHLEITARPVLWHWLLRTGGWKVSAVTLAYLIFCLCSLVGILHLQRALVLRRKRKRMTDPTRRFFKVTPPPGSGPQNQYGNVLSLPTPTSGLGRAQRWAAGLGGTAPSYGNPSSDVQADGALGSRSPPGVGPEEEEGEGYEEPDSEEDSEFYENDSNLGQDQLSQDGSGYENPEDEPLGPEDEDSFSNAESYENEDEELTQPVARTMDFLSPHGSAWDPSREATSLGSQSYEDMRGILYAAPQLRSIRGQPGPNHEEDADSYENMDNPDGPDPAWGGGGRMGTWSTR
Nature of the assay: cell based ELISA on 300B4 cells expressing recombinant human CD19, OD450. The method, then:
(§1) 300B4 cells were cultured according to standard protocols in RPMI 1640 medium containing L-glutamine and supplemented with 10% Fetal Calf Serum, β-mercaptoethanol in the presence of 1 mg/ml G418. A standard ELISA protocol can be used for the cell based CD19 binding assay. […] Binding reactions are performed in triplicates for each antibody concentration tested. Negative control wells using an isotype matched antibody of irrelevant specificity should be included in the assay. Following incubation with the antibody 300B4 cells are washed three times with 200 micro liter of ELISA buffer. The amount of chimeric, humanized, or human anti-CD19 antibodies bound to 300B4 cells can be detected using a goat anti-human kappa antibody conjugated with horseradish peroxidase according to standard protocols.
An isotype matched human antibody of irrelevant specificity was included in the assay as a negative control.
For orientation: An ELISA detects its analyte on a solid surface through an enzyme-linked reagent.

The target in assay [2] is T1, human CD19 antigen. The description is as above. The procedure:
as §1
This is another data set of the same source.

Assay [3] has as its target T1, human CD19 antigen. Briefly: cell-based or functional assay.
In assay [4] the target is T1, human CD19 antigen. Briefly: cell based ECL binding assay (Meso Scale Discovery; Lu et al. 2006) on 300B4 cells as titled on the sheet, Fab supernatant, signal in Units. The procedure:
(§2) CDR specific phage display libraries were generated as described above. Libraries were screened by testing a large number of phage clones (approximately 400 clones per library) in single point cell based binding assay (Lu et al., J. Immunol. Methods 314:74-79 (2006)). Reagents and disposables were purchased from Meso Scale Discovery; assays were performed following the manufacturer's instructions.
(§3) Combinatorial phage display libraries were prepared as described above. Individual Fab clones from the combinatorial library were tested for binding to 300B4 and Raji cells (Lu et al., J. Immunol. Methods 314:74-79 (2006)).

Assay [5] has as its target T1, human CD19 antigen. Nature of the assay: cell based ECL binding assay (Meso Scale Discovery; Lu et al. 2006) on 300B4 cells expressing recombinant human CD19, Fab supernatant, signal in Units. The procedure:
as §2

Assay [6] addresses T1, human CD19 antigen. Briefly: cell based ECL binding assay (Meso Scale Discovery; Lu et al. 2006) on Raji cells as titled on the sheet, Fab supernatant, signal in Units. The procedure: as §2, §3

Changes are numbered by the printed parent chain.

B1: Chimeric HB12B antibody comprising HB12B VH and HB12B VK (antibody, human IgG1, V domains shown)
VH: QVQLQQSGPELVKPGASVKISCKASGYAFSSSWMNWVIQRPGQGLEWIGRIYPGDGDTNYNGKFKGKATLTADKSSSTAYMQLSSLTSVDSAVYFCARSGFITTVLDFDYWGHGTTLTVSS
VL: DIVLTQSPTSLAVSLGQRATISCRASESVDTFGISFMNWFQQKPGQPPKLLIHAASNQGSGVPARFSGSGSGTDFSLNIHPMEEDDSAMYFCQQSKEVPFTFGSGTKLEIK
notes: also called chHB12B; chimeric anti-CD19 antibody
Turning to B1, the 50% effective concentration (EC50 (read off the curve)) was around 200 ng/mL in assay [1] and around 80 ng/mL in assay [2].

B2: afucosylated 16C4 anti-CD19 antibody (antibody, human IgG1, V domains shown)
VH: EVQLVESGGGLVQPGGSLRLSCAASGFTFSSSWMNWVRQAPGKGLEWVGRIYPGDGDTNYNVKFKGRFTISRDDSKNSLYLQMNSLKTEDTAVYYCARSGFITTVRDFDYWGQGTLVTVSS
VL: EIVLTQSPDFQSVTPKEKVTITCRASESVDTFGISFMNWFQQKPDQSPKLLIHEASNQGSGVPSRFSGSGSGTDFTLTINSLEAEDAATYYCQQSKEVPFTFGGGTKVEIK
modifications: afucosylated Fc N-glycan (as for 3649-aFuc)
Take B2: in assay [3], the “% max. cell kill at 10 ug/ml, DB target cells” value is 34%; the “% max. cell kill at 10 ug/ml, Daudi target cells” value came out at 50%; the “% max. cell kill at 10 ug/ml, Farage target cells” value came out at 48%; the “% max. cell kill at 10 ug/ml, Granta-519 target cells” value turned out to be 6%. For the same molecule, in assay [3], the “% max. cell kill at 10 ug/ml, Karpas-422 target cells” value stood at 62%; the “% max. cell kill at 10 ug/ml, Karpas-1106P target cells” value stood at 59%; the “% max. cell kill at 10 ug/ml, Nalm-6 target cells” value is 35%; the “% max. cell kill at 10 ug/ml, Namalwa target cells” value was 23%. In assay [3], the “% max. cell kill at 10 ug/ml, Oci-LY19 target cells” value is 47%; the “% max. cell kill at 10 ug/ml, RL target cells” value was 45%; the “% max. cell kill at 10 ug/ml, Raji target cells” value amounted to 43%; the “% max. cell kill at 10 ug/ml, Toledo target cells” value amounted to 48%. For the same molecule, in assay [3], the “ADCC EC50, Daudi target cells” value came out at 0.0031 ng/mL; the “ADCC EC50, Farage target cells” value came out at 0.0141 ng/mL; the “ADCC EC50, Karpas-422 target cells” value amounted to 0.0181 ng/mL; the “ADCC EC50, Karpas-1106P target cells” value came out at 0.009 ng/mL. Moreover, in assay [3], the “ADCC EC50, Nalm-6 target cells” value stood at 0.0199 ng/mL; the “ADCC EC50, Namalwa target cells” value turned out to be 0.012 ng/mL; the “ADCC EC50, Oci-LY19 target cells” value is 0.0163 ng/mL; the “ADCC EC50, RL target cells” value came out at 0.0073 ng/mL. In addition, in assay [3], the “ADCC EC50, Raji target cells” value is 0.003 ng/mL and the “ADCC EC50, Toledo target cells” value amounted to 0.0075 ng/mL.

B3: afucosylated 3649 anti-CD19 antibody (antibody, human IgG1, V domains shown)
VH: B2 VH with V62G, R106L
VL: B2 VL with E54A
modifications: complex N-glycoside-linked sugar chains linked to Asn297 of the Fc region in which fucose is not bound to N-acetylglucosamine in the reducing end
In the case of B3, in assay [3], the “% max. cell kill at 10 ug/ml, DB target cells” value came to 42%; the “% max. cell kill at 10 ug/ml, Daudi target cells” value was 51%; the “% max. cell kill at 10 ug/ml, Farage target cells” value stood at 48%; the “% max. cell kill at 10 ug/ml, Granta-519 target cells” value was 9%. For the same molecule, in assay [3], the “% max. cell kill at 10 ug/ml, Karpas-422 target cells” value stood at 64%; the “% max. cell kill at 10 ug/ml, Karpas-1106P target cells” value turned out to be 59%; the “% max. cell kill at 10 ug/ml, Nalm-6 target cells” value came to 39%; the “% max. cell kill at 10 ug/ml, Namalwa target cells” value is 25%. Also, in assay [3], the “% max. cell kill at 10 ug/ml, Oci-LY19 target cells” value stood at 54%; the “% max. cell kill at 10 ug/ml, RL target cells” value came out at 46%; the “% max. cell kill at 10 ug/ml, Raji target cells” value was found to be 44%; the “% max. cell kill at 10 ug/ml, Toledo target cells” value is 53%. In assay [3], the “ADCC EC50, Daudi target cells” value turned out to be 0.0576 ng/mL; the “ADCC EC50, Farage target cells” value is 0.0536 ng/mL; the “ADCC EC50, Karpas-422 target cells” value is 0.0442 ng/mL; the “ADCC EC50, Karpas-1106P target cells” value amounted to 0.0142 ng/mL. Besides, in assay [3], the “ADCC EC50, Nalm-6 target cells” value was determined as 0.0605 ng/mL; the “ADCC EC50, Namalwa target cells” value came to 0.04 ng/mL; the “ADCC EC50, Oci-LY19 target cells” value came out at 0.0518 ng/mL; the “ADCC EC50, RL target cells” value turned out to be 0.0194 ng/mL. Further, in assay [3], the “ADCC EC50, Raji target cells” value was found to be 0.009 ng/mL and the “ADCC EC50, Toledo target cells” value came out at 0.0155 ng/mL.

B4: humanized anti-CD19 antibody #2 comprising HB12B-(3-72/JH4) VH, HB12B-3649 VK, and IgG1 heavy chain constant region (antibody, V domains shown)
VH: B2 VH with V62G, R106L
VL: B2 VL with E54A
notes: also called humanized HB12B antibody #2
As for B4, in assay [2], the “EC50 (read off the curve)” value is around 80 ng/mL.

B5: 16C4 affinity matured anti-CD19 IgG antibody (antibody, V domains shown)
VH: B2 VH
VL: B2 VL
On to B5, for which, in assay [3], the “% max. cell kill at 10 ug/ml, DB target cells” value was 6%; the “% max. cell kill at 10 ug/ml, Daudi target cells” value turned out to be 16%; the “% max. cell kill at 10 ug/ml, Farage target cells” value worked out at 13%; the “% max. cell kill at 10 ug/ml, Granta-519 target cells” value was found to be 0%. For the same molecule, in assay [3], the “% max. cell kill at 10 ug/ml, Karpas-422 target cells” value was 6%; the “% max. cell kill at 10 ug/ml, Karpas-1106P target cells” value is 16%; the “% max. cell kill at 10 ug/ml, Nalm-6 target cells” value came to 17%; the “% max. cell kill at 10 ug/ml, Namalwa target cells” value was 4%. Further, in assay [3], the “% max. cell kill at 10 ug/ml, Oci-LY19 target cells” value came to 6%; the “% max. cell kill at 10 ug/ml, RL target cells” value amounted to 15%; the “% max. cell kill at 10 ug/ml, Raji target cells” value worked out at 26%; the “% max. cell kill at 10 ug/ml, Toledo target cells” value amounted to 12%. In assay [3], the “ADCC EC50, Daudi target cells” value stood at 0.0576 ng/mL; the “ADCC EC50, Farage target cells” value was 0.0927 ng/mL; the “ADCC EC50, Karpas-1106P target cells” value was determined as 0.533 ng/mL; the “ADCC EC50, RL target cells” value worked out at 0.0393 ng/mL. For the same molecule, in assay [3], the “ADCC EC50, Raji target cells” value turned out to be 0.012 ng/mL and the “ADCC EC50, Toledo target cells” value was 0.0545 ng/mL.

B6: humanized anti-CD19 antibody #1 comprising HB12B-(3-72/JH4) VH and HB12B-364987 VK (antibody, human IgG1, V domains shown)
VH: B2 VH with V62G, R106L
VL: B2 VL with E54A, Y91F
notes: Human IgG1/kappa constant regions; also called humanized HB12B antibody #1
As for B6, the “EC50 (read off the curve)” value in assay [1] was around 200 ng/mL; in assay [2], around 70 ng/mL.

B7: 6C11 affinity matured Fab (Fab, V domains shown)
VH: B2 VH with S32V, P53L
VL: B2 VL with Q58P, S95T, E97R
notes: Fab
Consider B7, for which the “EC50 (read off the curve)” value in assay [4] was around 500 ng/mL.

B8: 16C4 Fab (Fab, V domains shown)
VH: B2 VH
VL: B2 VL
notes: Fab with human γ1 CH1 and human kappa constant domain; also called Clone 16C4; 16C4sup
For B8, the “EC50 (read off the curve)” value in assay [5] is around 1000 ng/mL.

B9: 3C3 affinity matured Fab (16C4 variant) (Fab, V domains shown)
VH: B2 VH with S32V
VL: B2 VL with T31H, M37I, Q58P, G59Y, Q93A, F100I
notes: Fab
Take B9: the “EC50 (read off the curve)” value was around 300 ng/mL in assay [6] and around 400 ng/mL in assay [4].

B10: 64D4 affinity matured Fab (16C4 variant, VH CDR2 Pro > Leu at 52A) (Fab, V domains shown)
VH: B2 VH with P53L
VL: B2 VL
notes: Fab with human γ1 CH1 and human kappa constant domain; position is Kabat
Turning to B10, the “EC50 (read off the curve)” value in assay [5] is around 1000 ng/mL.

B11: 5C4 affinity matured Fab (Fab, V domains shown)
VH: B2 VH with S32V
VL: B2 VL with D30I, M37I, Q58P, G59Y, Q93A, S95T, E97R
notes: Fab
With B11, in assay [4], the “EC50 (read off the curve)” value is around 400 ng/mL.

By EC50 (read off the curve) is commonly meant the concentration needed to bring the measured effect to its halfway point.

Values taken from patent US20180273621A1 (AstraZeneca / MedImmune, published 2018).
